Experimental data reported in patent publication US20200347146A1 (published 2020).
Blank lines part the entries; values can stand above or below the binder they belong to.

What was measured:
[1] = biological target: T1, CD73 on the surface of A375 cells (UniProt P21589 27-549); assay: flow cytometry cell binding
T1 chain: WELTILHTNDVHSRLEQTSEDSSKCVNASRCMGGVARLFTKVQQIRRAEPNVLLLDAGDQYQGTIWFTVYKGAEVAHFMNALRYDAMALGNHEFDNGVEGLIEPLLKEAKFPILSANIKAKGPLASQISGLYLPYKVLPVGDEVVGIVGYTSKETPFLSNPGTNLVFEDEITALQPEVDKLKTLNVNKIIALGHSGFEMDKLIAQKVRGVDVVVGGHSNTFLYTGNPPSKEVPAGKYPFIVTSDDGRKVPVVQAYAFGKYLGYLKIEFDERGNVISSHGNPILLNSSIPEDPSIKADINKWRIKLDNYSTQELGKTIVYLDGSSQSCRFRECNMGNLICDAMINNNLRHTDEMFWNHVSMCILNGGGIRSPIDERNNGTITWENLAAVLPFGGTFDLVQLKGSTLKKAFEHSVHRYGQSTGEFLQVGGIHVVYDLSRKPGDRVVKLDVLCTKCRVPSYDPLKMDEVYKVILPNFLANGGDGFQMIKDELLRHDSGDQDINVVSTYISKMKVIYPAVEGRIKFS

[2] = biological target: T2, human CD73 protein (soluble) (human, UniProt P21589 27-549); assay: ELISA
T2 chain: T1 chain

[3] = biological target: human PD-L1 protein (soluble) (human, UniProt Q9NZQ7 19-238); assay: ELISA
human PD-L1 protein (soluble), sequence (Q9NZQ7 19-238): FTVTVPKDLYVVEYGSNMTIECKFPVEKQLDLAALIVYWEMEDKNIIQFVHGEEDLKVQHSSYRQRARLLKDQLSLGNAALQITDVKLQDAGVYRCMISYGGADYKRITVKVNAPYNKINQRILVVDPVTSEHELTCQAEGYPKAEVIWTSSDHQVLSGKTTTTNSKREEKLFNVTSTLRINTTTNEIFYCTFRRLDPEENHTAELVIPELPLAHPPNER

[4] = biological target: human PD-L1 on PD-L1 positive Raji cells (human, UniProt Q9NZQ7 19-290); assay: flow cytometry cell binding
human PD-L1 on PD-L1 positive Raji cells, sequence (Q9NZQ7 19-290): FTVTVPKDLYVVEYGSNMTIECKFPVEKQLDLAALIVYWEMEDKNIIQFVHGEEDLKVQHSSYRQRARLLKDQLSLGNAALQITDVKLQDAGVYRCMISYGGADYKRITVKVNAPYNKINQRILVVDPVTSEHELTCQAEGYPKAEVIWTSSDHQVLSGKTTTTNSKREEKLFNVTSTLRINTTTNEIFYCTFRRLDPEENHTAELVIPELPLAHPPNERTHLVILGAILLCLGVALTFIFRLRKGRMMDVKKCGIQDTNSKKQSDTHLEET

- EC50 [1]: 2.06 nM
- EC50 [2]: 0.0575 nM
B1: hu309 (monospecific anti-CD73 antibody with the 309 VH and 309 VL) (antibody, V domains shown)
VH: EVQLQESGPGLVKPSETLSLTCAVSGYSITSGYYWNWIRQPPGKKLEWMGYINYGGSNGYNPSLKSRITISRDTSKNQFSLKLSSVTAADTAVYYCARDYDAYYEALDDWGQGTTVTVSS
VL: EIVLSQSPATLSLSPGERATLSCRASSRVNYMHWYQQKPGQSPRPWISATSNLASGVPARFSGSGSGTSYTLTISSLEPEDFAVYYCQQWSSNPPTFGGGTKVEIK

- EC50 [3]: 0.00948 nM
- EC50 [4]: 0.0237 nM
B2: H12(PDL1) (monospecific anti-PD-L1 antibody with the H12 VH and H12 VL) (antibody, V domains shown)
VH: EVQLVESGGGLVQPGGSLRLSCAASGFTFSSYDMSWVRQAPGKSLEWVATISDAGGYIYYRDSVKGRFTISRDNAKNSLYLQMNSLRDEDTAVYICARELPWRYALDYWGQGTTVTVSS
VL: DIQMTQSPSSLSASVGDRVTITCKASQDVTPAVAWYQQKPGKAPKLLIYSTSSRYTGVPSRFSGSGSGTDFTFTISSLQPEDIATYYCQQHYTTPLTFGQGTKLEIK

- EC50 [3]: 0.179 nM
- EC50 [1]: 2.24 nM
- EC50 [4]: 0.255 nM
- EC50 [2]: 0.0715 nM
B3: anti-CD73/PD-L1 bispecific antibody 309-H12 (structure A of FIG. 1) (bispecific antibody)
heavy: not shown
light: EIVLSQSPATLSLSPGERATLSCRASSRVNYMHWYQQKPGQSPRPWISATSNLASGVPARFSGSGSGTSYTLTISSLEPEDFAVYYCQQWSSNPPTFGGGTKVEIKRTVAAPSVFIFPPSDEQLKSGTASVVCLLNNFYPREAKVQWKVDNALQSGNSQESVTEQDSKDSTYSLSSTLTLSKADYEKHKVYACEVTHQGLSSPVTKSFNRGEC
